# According to article PMC4200520:
# Legend:
# [1] = target: TD4, minimal TACC domain (TD) fragment of XTACC3 (Xenopus); assay: ITC; TD4 (10–20 μM) in the cell, peptide (400–500 μM) in the syringe; 25 °C; 20 mM HEPES pH 7.5, 150 mM NaCl, 0.25 mM TCEP; one-site model
# [2] = target: TD4, minimal TACC domain (TD) fragment of XTACC3 (Xenopus); assay: SEC-MALS; TD4 with saturating concentrations of pCt; Superdex 200 10/300 GL, 20 mM Tris/HCl, 150 mM NaCl, 0.25 mM TCEP, pH 8.0
# [3] = target: TD4, minimal TACC domain (TD) fragment of XTACC3 (Xenopus); assay: SPR; TD4 (50 μg/ml) amine-coupled to a CM5 chip, peptides pCt or pCt_KD as analytes 10–250 μM; BIAcore X100, 20 °C, HBS (100 mM HEPES, 150 mM NaCl, 0.05% P20, pH 7.4); steady-state fit, single-site model
binder,measurement,setting,value
"STNIDDLKKRLERIKS [pCt, synthetic peptide of XMAP-Ct residues 46-61]",Kd,[1],11 µM
same,stoichiometry N,[1],0.5 TD4:pCt
same,stoichiometry N (pCt per TD4 dimer),[2],4
same,Kd,[3],30 µM
